Laboratory results: patent publication US20190314526A1

Experiments:
[1] = molecular target: AAV-2 capsid mutant W365A (rAAV-2 virion) (AAV-2) (UniProt P03135); experiment: cell-based or functional assay
[2] = molecular target: AAV-2 capsid mutant Q452A (rAAV-2 virion) (AAV-2) (UniProt P03135); experiment: cell-based or functional assay
[3] = molecular target: AAV-2 capsid mutant G128A (rAAV-2 virion) (AAV-2) (UniProt P03135); experiment: cell-based or functional assay
[4] = molecular target: AAV-2 capsid mutant H134Q (rAAV-2 virion) (AAV-2) (UniProt P03135); experiment: cell-based or functional assay
[5] = molecular target: AAV-2 capsid mutant S130A (rAAV-2 virion) (AAV-2) (UniProt P03135); experiment: cell-based or functional assay
[6] = molecular target: AAV-2 capsid mutant K395A (rAAV-2 virion) (AAV-2) (UniProt P03135); experiment: cell-based or functional assay
[7] = molecular target: AAV-2 capsid mutant N450A (rAAV-2 virion) (AAV-2) (UniProt P03135); experiment: cell-based or functional assay
[8] = molecular target: AAV-2 capsid mutant E411A/T413A/G449A/N450A/N568A/V571A (rAAV-2 virion) (AAV-2) (UniProt P03135); experiment: cell-based or functional assay
[9] = molecular target: AAV-2 capsid mutant N568A (rAAV-2 virion) (AAV-2) (UniProt P03135); experiment: cell-based or functional assay
[10] = molecular target: AAV-2 capsid mutant S130T (rAAV-2 virion) (AAV-2) (UniProt P03135); experiment: cell-based or functional assay
[11] = molecular target: AAV-2 capsid mutant R334A/G449A (rAAV-2 virion) (AAV-2) (UniProt P03135); experiment: cell-based or functional assay
[12] = molecular target: AAV-2 capsid mutant T413K (rAAV-2 virion) (AAV-2) (UniProt P03135); experiment: cell-based or functional assay
[13] = molecular target: AAV-2 capsid mutant N568A/V571A (rAAV-2 virion) (AAV-2) (UniProt P03135); experiment: cell-based or functional assay
[14] = molecular target: AAV-2 capsid mutant E411A/T413A/G449A/N450A (rAAV-2 virion) (AAV-2) (UniProt P03135); experiment: cell-based or functional assay
[15] = molecular target: AAV-2 capsid mutant G449A/N568A (rAAV-2 virion) (AAV-2) (UniProt P03135); experiment: cell-based or functional assay
[16] = molecular target: AAV-2 capsid mutant V571K (rAAV-2 virion) (AAV-2) (UniProt P03135); experiment: cell-based or functional assay
[17] = molecular target: AAV-2 capsid mutant S127A (rAAV-2 virion) (AAV-2) (UniProt P03135); experiment: cell-based or functional assay
[18] = molecular target: AAV-2 with a wild-type capsid (rAAV-2 virion) (AAV-2) (UniProt P03135); experiment: cell-based or functional assay
[19] = molecular target: AAV-2 capsid mutant F396A (rAAV-2 virion) (AAV-2) (UniProt P03135); experiment: cell-based or functional assay
[20] = molecular target: AAV-2 capsid mutant V571A (rAAV-2 virion) (AAV-2) (UniProt P03135); experiment: cell-based or functional assay
[21] = molecular target: AAV-2 capsid mutant G449A (rAAV-2 virion) (AAV-2) (UniProt P03135); experiment: cell-based or functional assay
[22] = molecular target: AAV-2 capsid mutant Q438A (rAAV-2 virion) (AAV-2) (UniProt P03135); experiment: cell-based or functional assay
[23] = molecular target: AAV-2 capsid mutant R334A (rAAV-2 virion) (AAV-2) (UniProt P03135); experiment: cell-based or functional assay
[24] = molecular target: AAV-2 capsid mutant K569A (rAAV-2 virion) (AAV-2) (UniProt P03135); experiment: cell-based or functional assay
[25] = molecular target: AAV-2 capsid mutant D357E (rAAV-2 virion) (AAV-2) (UniProt P03135); experiment: cell-based or functional assay
[26] = molecular target: AAV-2 capsid mutant H372K (rAAV-2 virion) (AAV-2) (UniProt P03135); experiment: cell-based or functional assay
[27] = molecular target: AAV-2 capsid mutant R334A/N568A (rAAV-2 virion) (AAV-2) (UniProt P03135); experiment: cell-based or functional assay
[28] = molecular target: AAV-2 capsid mutant N133A (rAAV-2 virion) (AAV-2) (UniProt P03135); experiment: cell-based or functional assay
[29] = molecular target: AAV-2 capsid mutant R334A/G449A/N568A (rAAV-2 virion) (AAV-2) (UniProt P03135); experiment: cell-based or functional assay
[30] = molecular target: AAV-2 with a wild-type capsid (rAAV-2 virion) (AAV-2) (UniProt P03135); experiment: all-human IgG ELISA, virus needed for half maximal OD, against wild type

purified human IgG from >10,000 donors (Panglobulin, ZLB Bioplasma AG)
Fold decrease in neutralizing titer [1]: 10.4 fold
Fold decrease in neutralizing titer [2]: 1.3 fold
Fold decrease in neutralizing titer [3]: 4.1 fold
Fold decrease in neutralizing titer [4]: 1.5 fold
Fold decrease in neutralizing titer [5]: 1.4 fold
Fold decrease in neutralizing titer [6]: 4.9 fold
Fold decrease in neutralizing titer [7]: 1.6 fold
Fold decrease in neutralizing titer [8]: 1.3 fold
Fold decrease in neutralizing titer [9]: 2 fold
Fold decrease in neutralizing titer [10]: 1.8 fold
Fold decrease in neutralizing titer [11]: 3.9 fold
Fold decrease in neutralizing titer [12]: 2.6 fold
Fold decrease in neutralizing titer [13]: 2.5 fold
Fold decrease in neutralizing titer [14]: 1 fold
Fold decrease in neutralizing titer [15]: 1.7 fold
Fold decrease in neutralizing titer [16]: 1 fold
Fold decrease in neutralizing titer [17]: 2.2 fold
Fold decrease in neutralizing titer [18]: 1 fold
Fold decrease in neutralizing titer [19]: 1.6 fold
Fold decrease in neutralizing titer [20]: 3.9 fold
Fold decrease in neutralizing titer [21]: 2.5 fold
Fold decrease in neutralizing titer [22]: 1.3 fold
Fold decrease in neutralizing titer [23]: 2.2 fold
Fold decrease in neutralizing titer [24]: 4 fold
Fold decrease in neutralizing titer [25]: 1.7 fold
Fold decrease in neutralizing titer [26]: 1.1 fold
Fold decrease in neutralizing titer [27]: 2.4 fold
Fold decrease in neutralizing titer [28]: 0.9 fold
Fold decrease in neutralizing titer [29]: 3 fold
Fold decrease in binding of human IgG [30]: 1 fold
